Source: paper PMC8889552
Where “and” joins values, the source holds several entries; their conditions need not be identical. Identical values can stand only once.

What was measured:
[1] = molecular target: recombinant HIV Gag (Pr55^Gag) (HIV); test: charge detection mass spectrometry
[2] = molecular target: recombinant HIV Gag (Pr55^Gag) (HIV); test: SPR

recombinant HIV Gag (Pr55^Gag) (natural protein)
stoichiometry N [1]: 125 mers and 220 mers
fold strengthening of homodimerization (SPR Kd) with Ca^2+ [2]: < 7 fold
